According to patent US20160311887A1 (CAMBRIDGE ENTERPRISE, published 2016):
Changes are numbered by the printed parent chain. In names and notes the source's numbering stands. Like-named read-outs stand apart in the source and are kept apart here. Values belong to the binder of their own block, whether it stands above or below them.

How the values were obtained:
[1] = biological target: T1, activated Protein C (APC) (human, UniProt P04070 43-197; P04070 212-461); assay: pseudo-first-order inhibition kinetics (repeated from Table 1)
T1 construct: also called human plasma APC
T1 sequence (P04070 43-197, chain 1 of 2): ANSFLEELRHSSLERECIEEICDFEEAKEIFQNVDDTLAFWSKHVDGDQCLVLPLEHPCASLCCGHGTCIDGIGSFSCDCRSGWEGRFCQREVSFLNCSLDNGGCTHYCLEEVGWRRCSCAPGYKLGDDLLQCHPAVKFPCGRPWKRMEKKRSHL
T1 sequence (P04070 212-461, chain 2 of 2): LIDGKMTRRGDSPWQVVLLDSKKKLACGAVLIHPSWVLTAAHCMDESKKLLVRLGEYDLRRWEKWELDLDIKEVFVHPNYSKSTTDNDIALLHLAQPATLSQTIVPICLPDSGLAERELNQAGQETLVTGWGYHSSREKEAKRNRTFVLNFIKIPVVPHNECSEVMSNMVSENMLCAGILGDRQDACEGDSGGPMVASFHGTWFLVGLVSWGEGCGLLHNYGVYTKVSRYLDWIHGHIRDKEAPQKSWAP
Experimental: (§1) Rate constants of thrombin and APC inhibition were measured under pseudo-first-order conditions using an excess of serpin over protease (Table 1). Serpin and protease were incubated together for varying lengths of time and the residual activity was determined by adding an excess of chromogenic substrate for the protease (S2238 for thrombin and […] for APC). Residual protease activity was then measured by following the absorbance at 405 nm. Plots of residual protease activity over time gave the observed rate constant kobs. The second-order rate constant, ₖ₂, is the slope of the plot of kobs versus serpin concentration (fitted using a linear regression model). Standard errors of the slope are shown.

thrombin [2] = biological target: T2, thrombin (UniProt P00734 328-622); assay: as above
Experimental: as §1

[3] = biological target: T1, activated Protein C (APC); assay: ratio of rate constants, APC over fXIa
Experimental: as §1
(§2) Second-order rate constants of inhibition for inhibition of fXIa by PCI and the P2KP1′K variant were measured under pseudo-first-order conditions using an excess of serpin over protease. Serpin and protease were incubated together for varying lengths of time and the residual activity determined by adding an excess of chromogenic substrate for the protease (S2366). Plots of residual protease activity over time gave the observed rate constant kobs. The second-order rate constant, k₂, is the slope of the plot of kobs versus serpin concentration (fitted using a linear regression model).

[4] = biological target: T1, activated Protein C (APC); assay: ratio of rate constants, APC over thrombin (repeated from Table 1)
[5] = biological target: T1, activated Protein C (APC); assay: pseudo-first-order inhibition kinetics, residual chromogenic activity, no heparin
Experimental: as §1

thrombin [6] = biological target: T2, thrombin; assay: as above
Experimental: as §1

[7] = biological target: T1, activated Protein C (APC); assay: ratio of rate constants, APC over thrombin
Experimental: as §1

[8] = biological target: T1, activated Protein C (APC); assay: pseudo-first-order inhibition kinetics, residual chromogenic activity, with equimolar unfractionated heparin
Experimental: (§3) PCI, unlike α₁AT, binds heparin and this binding considerably increases its inhibition of thrombin and APC (Pratt & Church, 1992). We therefore tested the inhibition of thrombin and APC by the P1′K and P2KP1′K PCI mutants in the presence of heparin to see if the swap in specificity seen in Table 1 would persist. Rate constants were measured under pseudo-first-order conditions using an excess of PCI over protease. PCI was preincubated with an equimolar concentration of unfractionated heparin for 30 min prior to the experiment. PCI:heparin and protease were incubated together for varying lengths of time and the residual activity after certain timepoints determined by adding an excess of chromogenic substrate for the protease mixed with polybrene to bind the heparin. Plots of residual protease activity over time gave the observed rate constant kobs. The second-order rate constant, k₂, is the slope of the plot of kobs versus serpin concentration (fitted using a linear regression model). Standard errors of the slope are shown. […] This might be due to the substrate pathway or complex dissociation. As for the inhibition in the absence of heparin, the P1′K and P2KP1′K mutants of PCI, unlike the WT protein were specific for APC over thrombin (Table 2).

thrombin [9] = biological target: T2, thrombin; assay: as above
Experimental: as §3

[10] = biological target: T1, activated Protein C (APC); assay: ratio of rate constants, APC over fXa
Experimental: (§4) The inhibition of APC was reduced but still considerable, especially for the variants of α₁AT and the PCI variants in the presence of heparin. However, the specificity of PCI and α₁AT Pitts is not limited to thrombin and APC. […] In order not to inhibit coagulation, our variants also need to be specific for APC over fXa. We therefore also determined the rate constants of inhibition of PCI and α₁AT and their variants for fXa (Table 3). Rate constants were measured under pseudo-first-order conditions using an excess of serpin over protease. Serpin and protease were incubated together for varying lengths of time and the residual activity determined by adding an excess of chromogenic substrate (S2222) for the protease. Plots of residual protease activity over time gave the observed rate constant kobs. The second-order rate constant, k₂, is the slope of the plot of kobs versus serpin concentration (fitted using a linear regression model). Standard errors of the slope are shown (Table 3).

[11] = biological target: T1, activated Protein C (APC); assay: ratio of rate constants with heparin, APC over thrombin
Experimental: as §3

fXa = biological target: T3, fXa (UniProt P00742 41-179; P00742 235-488); assay: pseudo-first-order inhibition kinetics, residual chromogenic activity (S2222)
T3 construct: also called factor Xa
T3 sequence (P00742 41-179 limits assumed, form in doubt, chain 1 of 2): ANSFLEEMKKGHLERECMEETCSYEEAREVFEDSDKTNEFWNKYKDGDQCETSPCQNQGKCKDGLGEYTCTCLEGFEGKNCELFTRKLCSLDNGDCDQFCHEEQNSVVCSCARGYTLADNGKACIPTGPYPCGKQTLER
T3 sequence (P00742 235-488 limits assumed, form in doubt, chain 2 of 2): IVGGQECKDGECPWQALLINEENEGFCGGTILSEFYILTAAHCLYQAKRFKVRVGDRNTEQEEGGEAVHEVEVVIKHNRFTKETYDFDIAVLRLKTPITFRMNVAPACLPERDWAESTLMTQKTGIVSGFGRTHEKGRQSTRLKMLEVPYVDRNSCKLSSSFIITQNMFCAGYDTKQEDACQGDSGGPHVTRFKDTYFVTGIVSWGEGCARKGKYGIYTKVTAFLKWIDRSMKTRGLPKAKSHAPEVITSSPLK
Experimental: as §4

[12] = biological target: T1, activated Protein C (APC); assay: ratio of rate constants, APC over fXa (repeated from Table 3)
Experimental: as §4

[13] = biological target: T1, activated Protein C (APC); assay: pseudo-first-order inhibition kinetics, residual chromogenic activity
Experimental: as §1

thrombin [14] = biological target: T2, thrombin; assay: as above
Experimental: as §1

[15] = biological target: T1, activated Protein C (APC); assay: ratio of rate constants, APC over fXIa; remark: listed apart in the source
Experimental: APC inhibition is shown for comparison (from Table 1). Standard errors are shown.
as §2, with “In addition we wanted to determine whether FL α₁AT Pitts C232S P2KP1′K affected the intrinsic (contact activation) pathway. Second-order” for “Second-order”, “inhibition” for “inhibition for inhibition”, “FL α₁AT Pitts C232S” for “PCI”, “pseudo first-order” for “pseudo-first-order”, “model). Standard errors of the slope are given.” for “model).”

[16] = biological target: T1, activated Protein C (APC); assay: ratio of rate constants, APC over thrombin (repeated from Table 1); remark: listed apart in the source
Experimental: as §1

thrombin [17] = biological target: T2, thrombin; assay: pseudo-first-order inhibition kinetics, residual chromogenic activity (S2238)
Experimental: as §1

B1: A22 WT PCI (other)
chain: APSSRRDFTFDLYRALASAAPSQNIFFSPVSISMSLAMLSLGAGSSTKMQILEGLGLNLQKSSEKELHRGFQQLLQELNQPRDGFQLSLGNALFTDLVVDLQDTFVSAMKTLYLADTFPTNFRDSAGAMKQINDYVAKQTKGKIVDLLKNLDSNAVVIMVNYIFFKAKWETSFNHKGTQEQDFYVTSETVVRVPMMSREDQYHYLLDRNLSCRVVGVPYQGNATALFILPSEGKMQQVENGLSEKTLRKWLKMFKKRQLELYLPKFSIEGSYQLEKVLPSLGISNVFTSHADLSGISNHSNIQVSEMVHKAVVEVDESGTRAAAATGTIFTFRSARLNSQRLVFNRPFLMFIVDNNILFLGKVNRP
notes: Serpin; E. coli, SUMO tag removed; also called A22 wild-type (WT) PCI
- second-order rate constant of inhibition [1]: 680 M⁻¹ s⁻¹
- second-order rate constant of inhibition (thrombin [2]): 28200 M⁻¹ s⁻¹
- inhibition of APC/fXIa [3]: 0.08 fold
- inhibition of APC/thrombin [4]: 0.02 fold
- second-order rate constant of inhibition [5]: 680 M⁻¹ s⁻¹
- second-order rate constant of inhibition (thrombin [6]): 28200 M⁻¹ s⁻¹
- fold inhibition APC/thrombin [7]: 0.02 fold
- second-order rate constant of inhibition [8]: 564000 M⁻¹ s⁻¹
- second-order rate constant of inhibition (thrombin [9]): 1.31e+06 M⁻¹ s⁻¹
- fold inhibition APC/fXa [10]: 0.07 fold
- fold inhibition APC/thrombin [11]: 0.4 fold
- second-order rate constant of inhibition (fXa): 10300 M⁻¹ s⁻¹

B2: A22 P1′K PCI (other)
chain: B1 chain with S334K
notes: As A22 WT PCI
- second-order rate constant of inhibition [5]: 880 M⁻¹ s⁻¹
- second-order rate constant of inhibition (thrombin [6]): 22 M⁻¹ s⁻¹
- fold inhibition APC/thrombin [7]: 40 fold
- second-order rate constant of inhibition [8]: 322000 M⁻¹ s⁻¹
- second-order rate constant of inhibition (thrombin [9]): 17 M⁻¹ s⁻¹
- fold inhibition APC/fXa [10]: 1.7 fold
- fold inhibition APC/thrombin [11]: 18900 fold
- second-order rate constant of inhibition (fXa): 520 M⁻¹ s⁻¹

B4: FL α1AT Pitts C232S (other)
chain: SDPQGDAAQKTDTSHHDQDHPTFNKITPNLAEFAFSLYRQLAHQSNSTNIFFSPVSIATAFAMLSLGTKADTHDEILEGLNFNLTEIPEAQIHEGFQELLRTLNQPDSQLQLTTGNGLFLSEGLKLVDKFLEDVKKLYHSEAFTVNFGDTEEAKKQINDYVEKGTQGKIVDLVKELDRDTVFALVNYIFFKGKWERPFEVKDTEEEDFHVDQVTTVKVPMMKRLGMFNIQHSKKLSSWVLLMKYLGNATAIFFLPDEGKLQHLENELTHDIITKFLENEDRRSASLHLPKLSITGTYDLKSVLGQLGITKVFSNGADLSGVTEEAPLKLSKAVHKAVLTIDEKGTEAAGAMFLEAIPRSIPPEVKFNKPFVFLMIEQNTKSPLFMGKVVNPTQK
notes: Serpin; E. coli, SUMO tag removed; also called α1-antitrypsin Pittsburgh
- second-order rate constant of inhibition [1]: 108000 M⁻¹ s⁻¹
- second-order rate constant of inhibition (thrombin [2]): 293000 M⁻¹ s⁻¹
- inhibition of APC/fXa [12]: 2.6 fold
- second-order rate constant of inhibition [13]: 108000 M⁻¹ s⁻¹
- second-order rate constant of inhibition (thrombin [14]): 293000 M⁻¹ s⁻¹
- inhibition of APC/fXIa [15]: 0.3 fold
- fold inhibition APC/thrombin [7]: 0.4 fold
- inhibition of APC/thrombin [16]: 0.4 fold
- fold inhibition APC/fXa [10]: 2.6 fold
- second-order rate constant of inhibition (fXa): 41300 M⁻¹ s⁻¹

The next lines start with the values.

- second-order rate constant of inhibition [1]: 280 M⁻¹ s⁻¹
- inhibition of APC/fXIa [3]: 12.2 fold
- inhibition of APC/thrombin [4]: 9.3 fold
- second-order rate constant of inhibition [5]: 280 M⁻¹ s⁻¹
- fold inhibition APC/thrombin [7]: 9.3 fold
- second-order rate constant of inhibition [8]: 146000 M⁻¹ s⁻¹
- fold inhibition APC/thrombin [11]: 1330 fold
B3: A22 P2KP1′K PCI (other)
chain: B1 chain with F332K, S334K
notes: As A22 WT PCI

- second-order rate constant of inhibition [1]: 15100 M⁻¹ s⁻¹
- inhibition of APC/fXa [12]: 126 fold
- second-order rate constant of inhibition [13]: 15100 M⁻¹ s⁻¹
- inhibition of APC/fXIa [15]: 32.2 fold
- binding result (thrombin [17]): no binding (tested: 4 h)
- fold inhibition APC/fXa [10]: 126 fold
- second-order rate constant of inhibition (fXa): 120 M⁻¹ s⁻¹
B5: FL α1AT Pitts C232S P2KP1′K (other)
chain: B4 chain with P357K, S359K
notes: E. coli, SUMO tag removed; also called P2KP1′K α1AT; P2KP1′K mutant of α1AT Pitts
